The data set can be described thus: protein stability index of a GFP-peptide fusion (GPS, HEK-293T) (PSI 1-6); higher = more stable.
[1] abbreviates: treatment: DMSO, c terminus: a fixed tail appended.
The mark [2] stands for this setting: treatment: MLN4924 1 uM, 8 h, c terminus: a fixed tail appended.

± gives the standard deviation.
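Further: 24-mer peptide tiles fused after GFP, lentivirally expressed, FACS-sorted into six equal bins by GFP/DsRed ratio, decoded by Illumina sequencing, PSI is the read-weighted mean bin number.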

Consider SLLRRIKGKLFTWNILKTIALGQM [SLC35F2], for which the protein stability index runs as follows: under setting [1], 2.31 ± 0.63; under setting [2], 2.38 ± 0.23.
For SLMPLQKSISPWKSPPQLRQFLPE [DENND6A] the same measures were 2.72 ± 0.21 and 2.51 ± 0.52.
The like results for SLNRACHQQNKIKDLQKEQKTLQV [CEP70] were, in that order, 3.53 ± 0.66 and 3.45 ± 0.45.
For SLPKRLCLVCGDVASGYHYGVASC [ESRRA] the same measures were 2.22 ± 0.28 and 2.43 ± 0.48.
Consider SLQKLSTKLSAQSAQYSQQLQAAR [FCHSD1], for which the protein stability index is, setting by setting: under setting [1], 3.34 ± 0.18; under setting [2], 3.54 ± 0.22.
For SNISRPRDNPMCLKCDLQERLLCP [M1AP] the same measures were 2.87 ± 0.095 and 3.05 ± 0.26.
The like results for SNSADDETDDPRRYQKYGYIGTHE [OAS1] were, in that order, 4.99 ± 0.11 and 4.85 ± 0.16.
The like results for SPEKEEQYIAQFTSQFLSLQCLQA [PRAME] were, in that order, 2.84 ± 0.41 and 2.44 ± 0.37.
For SPGSPVGEGTGSPPKWQIGEQEFE [ADD1], the protein stability index worked out at 5.35 ± 0.14 under setting [1] and 5.35 ± 0.25 under setting [2].
For SPHRKRSDDSDEDEPCAISGKWTF [DLC1] the same measures were 4.47 ± 0.22 and 4.51 ± 0.13.
In the case of SPLLSQETAGQKPLSVHRPPTSGC [TSPAN10], the protein stability index by setting is: under setting [1], 4.4 ± 0.17; under setting [2], 4.46 ± 0.18.
The like results for SPNSTPAKTIDTSPPVDLFATASA [SNAP91] were, in that order, 4.8 ± 0.18 and 4.67 ± 0.15.
The like results for SPSRAPGLRQRASNKVQDSAPVET [HMOX1] were, in that order, 5.01 ± 0.27 and 5.22 ± 0.2.
The like results for SPSVMRLVHTQEPGEWLELLLEPG [ALKBH7] were, in that order, 2.83 ± 0.23 and 3 ± 0.24.
With SPTDIQDSSIIRTTQDLFAINRDT [RHOBTB3], the protein stability index reads like this: under setting [1], 4.47 ± 0.15; under setting [2], 4.67 ± 0.44.
The like results for SPTFPALGIGMDSCVIPLRHGGLS [SEPHS2] were, in that order, 2.98 ± 0.15 and 2.98 ± 0.29.
Regarding SQVSMWDQRWQDHQPLLPITDVP [APBB1IP], the protein stability index runs as follows: (treatment: DMSO, c terminus: native) 2.63 ± 0.55; (treatment: MLN4924 1 uM, 8 h, c terminus: native) 3.22 ± 0.51.
As for SRAGGPTTPLSPTRLSRLQEKEEL [LMNB1], the protein stability index runs as follows: under setting [1], 5.15 ± 0.37; under setting [2], 5.36 ± 0.15.
The like results for SRAPCKVQGLEGIKMAMVACGDAF [NEK8] were, in that order, 2.27 ± 0.38 and 2.25 ± 0.27.
The like results for SRSPLKIVKKPKSMQCKVILLDGS [EPB41L3] were, in that order, 2.52 ± 0.081 and 2.51 ± 0.29.
Regarding SSFFTCNQKCQLRLLKTLETSRSH [ATP23], the protein stability index reads like this: under setting [1], 2.44 ± 0.31; under setting [2], 2.58 ± 0.33.
On to SSGKVLPKWGWEQLEVTCTPYLKE [POMT2], for which the protein stability index worked out at 2.64 ± 0.33 under setting [1] and 2.67 ± 0.33 under setting [2].
Consider SSLVWLFSQLYLYSFISLFIYMVL [MCOLN1], for which the protein stability index was determined as 3.02 ± 0.19 under setting [1] and 3.03 ± 0.68 under setting [2].
The like results for SSQDRMFETMAIEIEQLLARLTGV [GOSR1] were, in that order, 2.52 ± 0.24 and 2.62 ± 0.44.
The like results for SSRSSEESSSDSGSSDSEEERATR [BRD3] were, in that order, 5.06 ± 0.33 and 5.08 ± 0.2.
The like results for SSTLVRPIRSRRALPPLRTRSKSD [FAM189A2] were, in that order, 4.65 ± 0.31 and 4.6 ± 0.084.
With STAKKEDINLSVRKLLNRHNIVFG [TRIP13], the protein stability index reads like this: under setting [1], 2.5 ± 0.27; under setting [2], 2.61 ± 0.24.
The like results for STESDKPTTGRVYESDSSNHCMLS [C18orf25] were, in that order, 4.88 ± 0.2 and 4.89 ± 0.32.
The like results for STKPSGSPLEEKHDQCKCENLIMF [MATN2] were, in that order, 3.3 ± 0.15 and 3.41 ± 0.099.

The record behind these values is the supplement of paper PMC10567573.
